Our source for the % of HIV-1 infected (p24+) CD4+ T cells recognized values is patent publication US20180148497A1.

Experiment [1] addresses cell surface Env of HIV-1 infected (p24+) CD4+ T cells (IMCs subtype AE CM235, subtype B BaL, subtype C 1086.C, as a group). Put plainly: flow cytometry, negative control staining of p24+ IMC-infected CD4+ T cells (FIG. 27).
For experiment [2] the target is unchanged. In words: flow cytometry, indirect staining of p24+ CD4+ T cells infected with BaL, CM235 or 1086.C IMC (FIG. 27). Background: In flow cytometry, cells or beads pass a laser one at a time.
Experiment [3] has the same target. Put plainly: flow cytometry, staining of p24+ CD4+ T cells infected with BaL, CM235 or 1086.C IMC (FIG. 27).

In experiment [1], Palivizumab mAb (anti-RSV) (antibody) returned a % of HIV-1 infected (p24+) CD4+ T cells recognized of less than 5%. Turning to “7B2 mAb (anti-gp41 cluster I) (antibody)”, in experiment [2], the % of HIV-1 infected (p24+) CD4+ T cells recognized was 24 to 38%. In experiment [1], “secondary conjugated Abs (secondary fluoresceinated anti-human IgG Abs) (antibody)” returned a % of HIV-1 infected (p24+) CD4+ T cells recognized of less than 5%. On to “HIV-1 × Fluorescein Bi-Specific Diabody (7B2 × 4420) (bispecific antibody)”, for which the % of HIV-1 infected (p24+) CD4+ T cells recognized in experiment [3] is 66 to 78%.
